Laboratory results published in the RNAGym collection of RNA variant scans (doi:10.1101/gr.219683.116).

B1: mRNA-splicing (parent)
chain: AGUUGCUGCUGGGAGCUCCAGCACAGUGAAAUGGACAGAAGGGCAGAGCAA

Variants of: B1
Test: exon inclusion enrichment index; higher = more inclusion; WT1 exon 5 minigene, HEK293

Row | Variant | exon inclusion enrichment index
1 | AGUUUCUUUUGGGAGCUCCAGCACAGUGAAAUGCCCAGAAGGGCAGAGCAA [G5U G8U C9U G34C A35C] | 0.0104
2 | AGUUUCUUUUGGGAGCUCCAGCACAGUGAAAUGCUCAGAAGGGCAGAGCAA [G5U G8U C9U G34C A35U] | 0.00745
3 | AGUUUCUUUUGGGAGCUCCAGCACAGUGAAAUGCGCAGAAGGGCAGAGCAA [G5U G8U C9U G34C A35G] | 0.0652
4 | AGUUUCUUUUGGGAGCUCCAGCACAGUUUAAUGGACAGAAGGGCAGAGCAA [G5U G8U C9U G28U A29U] | 0.0195
5 | AGUUUCUUUUGGGAGCUCCAGCACAGUUCAAUGGACAGAAGGGCAGAGCAA [G5U G8U C9U G28U A29C] | 0.0643
6 | AGUUUCUUUUGGGAGCUCCAGCACAGUUGAAUGGACAGAAGGGCAGAGCAA [G5U G8U C9U G28U A29G] | 0.118
7 | AGUUUCUUUUGGGAGCUCCAGCACAGUAUAAUGGACAGAAGGGCAGAGCAA [G5U G8U C9U G28A A29U] | 0.0186
8 | AGUUUCUUUUGGGAGCUCCAGCACAGUACAAUGGACAGAAGGGCAGAGCAA [G5U G8U C9U G28A A29C] | 0.0709
9 | AGUUUCUUUUGGGAGCUCCAGCACAGUAGAAUGGACAGAAGGGCAGAGCAA [G5U G8U C9U G28A A29G] | 0.0263
10 | AGUUUCUUUUGGGAGCUCCAGCACAGUGAAAUGGACAUUAGGGCAGAGCAA [G5U G8U C9U G38U A39U] | 0.00101
11 | AGUUUCUUUUGGGAGCUCCAGCACAGUGAAAUGGACAUCAGGGCAGAGCAA [G5U G8U C9U G38U A39C] | 0.088
12 | AGUUUCUUUUGGGAGCUCCAGCACAGUGAAAUGGACAUGAGGGCAGAGCAA [G5U G8U C9U G38U A39G] | 0.0405
13 | AGUUUCUUUUGGGAGCUCCAGCACAGUGAAAUGGACACUAGGGCAGAGCAA [G5U G8U C9U G38C A39U] | 0.00329
14 | AGUUUCUUUUGGGAGCUCCAGCACAGUGAAAUGGACACCAGGGCAGAGCAA [G5U G8U C9U G38C A39C] | 0.152
15 | AGUUUCUUUUGGGAGCUCCAGCACAGUGAAAUGGACACGAGGGCAGAGCAA [G5U G8U C9U G38C A39G] | 0.136
16 | AGUUUCUUUUGGGAGCUCCAGCACAGUGAAAUAGACAGAAGGGCAGAGCAA [G5U G8U C9U G33A] | 0.00649
17 | AGUUUCUUUUGGGAGCUCCAGCACAGUGAAAUUGACAGAAGGGCAGAGCAA [G5U G8U C9U G33U] | 0.0674
18 | AGUUUCUUUUGGGAGCUCCAGCACAGUGAAAUCGACAGAAGGGCAGAGCAA [G5U G8U C9U G33C] | 0.254
19 | AGUUUCUUUUGGGAGCUCCAGCACAGUGAAAUAUACAGAAGGGCAGAGCAA [G5U G8U C9U G33A G34U] | 0.0046
20 | AGUUUCUUUUGGGAGCUCCAGCACAGUGAAAUAAACAGAAGGGCAGAGCAA [G5U G8U C9U G33A G34A] | 0.0153
21 | AGUUUCUUUUGGGAGCUCCAGCACAGUGAAAUACACAGAAGGGCAGAGCAA [G5U G8U C9U G33A G34C] | 0.0112
22 | AGUUUCUUUUGGGAGCUCCAGCACAGUCUAAUGGACAGAAGGGCAGAGCAA [G5U G8U C9U G28C A29U] | 0.0407
23 | AGUUUCUUUUGGGAGCUCCAGCACAGUCGAAUGGACAGAAGGGCAGAGCAA [G5U G8U C9U G28C A29G] | 0.342
24 | AGUUUCUUUUGGGAGCUCCAGCACAGUCCAAUGGACAGAAGGGCAGAGCAA [G5U G8U C9U G28C A29C] | 0.115
25 | AGUUUCUUUUGGGAGCUCCAGCACAGUAAAAUGGACAGAAGGGCAGAGCAA [G5U G8U C9U G28A] | 0.0119
26 | AGUUUCUUUUGGGAGCUCCAGCACAGUUAAAUGGACAGAAGGGCAGAGCAA [G5U G8U C9U G28U] | 0.0111

Row | Variant | exon inclusion enrichment index
27 | AGUUUCUUUUGGGAGCUCCAGCACAGUCAAAUGGACAGAAGGGCAGAGCAA [G5U G8U C9U G28C] | 0.0778
28 | AGUUUCUUUUGGGAGCUCCAGCACAGUGAAAUGACCAGAAGGGCAGAGCAA [G5U G8U C9U G34A A35C] | 0.0912
29 | AGUUUCUUUUGGGAGCUCCAGCACAGUGAAAUGAGCAGAAGGGCAGAGCAA [G5U G8U C9U G34A A35G] | 0.0238
30 | AGUUUCUUUUGGGAGCUCCAGCACAGUGAAAUGAUCAGAAGGGCAGAGCAA [G5U G8U C9U G34A A35U] | 0.0163
31 | AGUUUCUUUUGGGAGCUCCAGCACAGUGAAAUGUACAGAAGGGCAGAGCAA [G5U G8U C9U G34U] | 0.0349
32 | AGUUUCUUUUGGGAGCUCCAGCACAGUGAAAUGCACAGAAGGGCAGAGCAA [G5U G8U C9U G34C] | 0.0201
33 | AGUUUCUUUUGGGAGCUCCAGCACAGUGAAAUGAACAGAAGGGCAGAGCAA [G5U G8U C9U G34A] | 0.0562
34 | AGUUUCUUUUGGGAGCUCCAGCACAGUGAAAUGGACAAAAGGGCAGAGCAA [G5U G8U C9U G38A] | 0.0418
35 | AGUUUCUUUUGGGAGCUCCAGCACAGUGAAAUGGACAUAAGGGCAGAGCAA [G5U G8U C9U G38U] | 0.0205
36 | AGUUUCUUUUGGGAGCUCCAGCACAGUGAAAUGGACACAAGGGCAGAGCAA [G5U G8U C9U G38C] | 0.0741
37 | AGUUUCUUUUGGGAGCUCCAGCACAGUGAAAUGUUCAGAAGGGCAGAGCAA [G5U G8U C9U G34U A35U] | 0.0186
38 | AGUUUCUUUUGGGAGCUCCAGCACAGUGAAAUGUCCAGAAGGGCAGAGCAA [G5U G8U C9U G34U A35C] | 0.0387
39 | AGUUUCUUUUGGGAGCUCCAGCACAGUGAAAUGUGCAGAAGGGCAGAGCAA [G5U G8U C9U G34U A35G] | 0.0289
40 | AGUUUCUUUUGGGAGCUCCAGCACAGUGAAAUUCACAGAAGGGCAGAGCAA [G5U G8U C9U G33U G34C] | 0.0164
41 | AGUUUCUUUUGGGAGCUCCAGCACAGUGAAAUUUACAGAAGGGCAGAGCAA [G5U G8U C9U G33U G34U] | 0.00702
42 | AGUUUCUUUUGGGAGCUCCAGCACAGUGAAAUUAACAGAAGGGCAGAGCAA [G5U G8U C9U G33U G34A] | 0.00858
43 | AGUUUCUUUUGGGAGCUCCAGCACAGUGAAAUGGACAAUAGGGCAGAGCAA [G5U G8U C9U G38A A39U] | 0.00274
44 | AGUUUCUUUUGGGAGCUCCAGCACAGUGAAAUGGACAAGAGGGCAGAGCAA [G5U G8U C9U G38A A39G] | 0.151
45 | AGUUUCUUUUGGGAGCUCCAGCACAGUGAAAUGGACAACAGGGCAGAGCAA [G5U G8U C9U G38A A39C] | 0.0724
46 | AGUUUCUUUUGGGAGCUCCAGCACAGUGAAAUGGACAGAAAGGCAGAGCAA [G5U G8U C9U G41A] | 0.0762
47 | AGUUUCUUUUGGGAGCUCCAGCACAGUGAAAUCUACAGAAGGGCAGAGCAA [G5U G8U C9U G33C G34U] | 0.0844
48 | AGUUUCUUUUGGGAGCUCCAGCACAGUGAAAUCAACAGAAGGGCAGAGCAA [G5U G8U C9U G33C G34A] | 0.0575
49 | AGUUUCUUUUGGGAGCUCCAGCACAGUGAAAUCCACAGAAGGGCAGAGCAA [G5U G8U C9U G33C G34C] | 0.0648
50 | AGUUUCUUUUGGGAGCUCCAGCACAGUGAAAUGGACAGAAAAGCAGAGCAA [G5U G8U C9U G41A G42A] | 0.107
51 | AGUUUCUUUUGGGAGCUCCAGCACAGUGAAAUGGACAGAAACGCAGAGCAA [G5U G8U C9U G41A G42C] | 0.348
